Source: publication PMC5799254, “Target identification of small molecules using large-scale CRISPR-Cas mutagenesis scanning of essential genes” (Nature Communications, 2018)

Target: the molecule itself
Assay: crystal structure; co-crystal of NAMPT (10 mg/mL) with a 5-fold excess of KPT-9274; hanging drops, 20 °C, reservoir 0.2 M NaCl, 0.1 M Tris pH 8.5, 22% PEG 3350

B1: nicotinamide phosphoribosyltransferase (NAMPT) (enzyme, human, UniProt P43490 1-491, looked up)
chain: MNPAAEAEFNILLATDSYKVTHYKQYPPNTSKVYSYFECREKKTENSKLRKVKYEETVFYGLQYILNKYLKGKVVTKEKIQEAKDVYKEHFQDDVFNEKGWNYILEKYDGHLPIEIKAVPEGFVIPRGNVLFTVENTDPECYWLTNWIETILVQSWYPITVATNSREQKKILAKYLLETSGNLDGLEYKLHDFGYRGVSSQETAGIGASAHLVNFKGTDTVAGLALIKKYYGTKDPVPGYSVPAAEHSTITAWGKDHEKDAFEHIVTQFSSVPVSVVSDSYDIYNACEKIWGEDLRHLIVSRSTQAPLIIRPDSGNPLDTVLKVLEILGKKFPVTENSKGYKLLPPYLRVIQGDGVDINTLQEIVEGMKQKMWSIENIAFGSGGGLLQKLTRDLLNCSFKCSYVVTNGLGINVFKDPVADPNKRSKKGRLSLHRTPAGNFVTLEEGKGDLEEYGQDLLHTVFKNGKVTKSYSFDEIRKNAQLNIELEAAHH
notes: nicotinamide phosphoribosyltransferase (NAMPT, NMPRTase), human, full length; also called NMPRTase
- stoichiometry N: 2
